From the supplement of paper PMC11316812
± gives the standard deviation of the averaged measurements.

What was measured:
hTERT-HMEC = test: percentage of EdU-negative (G0-arrested) nuclei per well, 72 h; higher = more G0 arrest; details: reference: sequence is the full UniProt precursor, the tested protein was the secreted form or ectodomain
MCF7 = test: as above; details: reference: sequence is the full UniProt precursor, the tested protein was the secreted form or ectodomain
[1] = protein concentration 0.01675 µM
[2] = protein concentration 0.1675 µM
[3] = protein concentration 0.0286875 µM
[4] = protein concentration 0.286875 µM
[5] = protein concentration 0.0225 µM
[6] = protein concentration 0.0257143 µM
[7] = protein concentration 0.257143 µM
[8] = protein concentration 0.01525 µM
[9] = protein concentration 0.1525 µM
[10] = protein concentration 0.0307925 µM
[11] = protein concentration 0.307925 µM
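Further: secreted proteins added to cultured cells, EdU pulse at the end, nuclei found by Hoechst imaging, EdU status from nuclear versus surrounding ring intensity ratio, PBS as neutral control.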

MFKCWSVVLVLGFIFLESEGRPTKEGGYGLKSYQPLMRLRHKQEKNQESSRVKGFMIQDGPFGSCENKYCGLGRHCVTSRETGQAECACMDLCKRHYKPVCGSDGEFYENHCEVHRAACLKKQKITIVHNEDCFFKGDKCKTTEYSKMKNMLLDLQNQKYIMQENENPNGDDISRKKLLVDQMFKYFDADSNGLVDINELTQVIKQEELGKDLFDCTLYVLLKYDDFNADKHLALEEFYRAFQVIQLSLPEDQKLSITAATVGQSAVLSCAIQGTLRPPIIWKRNNIILNNLDLEDINDFGDDGSLYITKVTTTHVGNYTCYADGYEQVYQTHIFQVNVPPVIRVYPESQAREPGVTASLRCHAEGIPKPQLGWLKNGIDITPKLSKQLTLQANGSEVHISNVRYEDTGAYTCIAKNEAGVDEDISSLFVEDSARKTLANILWREEGLGIGNMFYVFYEDGIKVIQPIECEFQRHIKPSEKLLGFQDEVCPKAEGDEVQRCVWASAVNVKDKFIYVAQPTLDRVLIVDVQSQKVVQAVSTDPVPVKLHYDKSHDQVWVLSWGTLEKTSPTLQVITLASGNVPHHTIHTQPVGKQFDRVDDFFIPTTTLIITHMRFGFILHKDEAALQKIDLETMSYIKTINLKDYKCVPQSLAYTHLGGYYFIGCKPDSTGAVSPQVMVDGVTDSVIGFNSDVTGTPYVSPDGHYLVSINDVKGLVRVQYITIRGEIQEAFDIYTNLHISDLAFQPSFTEAHQYNIYGSSSTQTDVLFVELSSGKVKMIKSLKEPLKAEEWPWNRKNRQIQDSGLFGQYLMTPSKDSLFILDGRLNKLNCEITEVEKGNTVIWVGDA [Q8N475]
percentage of EdU-negative (hTERT-HMEC; [1]): 4.72 ± 1.2%
percentage of EdU-negative (hTERT-HMEC; [2]): 6.54 ± 0.16%
percentage of EdU-negative (MCF7; [1]): 24.2 ± 4.5%
percentage of EdU-negative (MCF7; [2]): 26.4 ± 1.8%

MKFFLLLFTIGFCWAQYSPNTQQGRTSIVHLFEWRWVDIALECERYLAPKGFGGVQVSPPNENVAIYNPFRPWWERYQPVSYKLCTRSGNEDEFRNMVTRCNNVGVRIYVDAVINHMCGNAVSAGTSSTCGSYFNPGSRDFPAVPYSGWDFNDGKCKTGSGDIENYNDATQVRDCRLTGLLDLALEKDYVRSKIAEYMNHLIDIGVAGFRLDASKHMWPGDIKAILDKLHNLNSNWFPAGSKPFIYQEVIDLGGEPIKSSDYFGNGRVTEFKYGAKLGTVIRKWNGEKMSYLKNWGEGWGFVPSDRALVFVDNHDNQRGHGAGGASILTFWDARLYKMAVGFMLAHPYGFTRVMSSYRWPRQFQNGNDVNDWVGPPNNNGVIKEVTINPDTTCGNDWVCEHRWRQIRNMVIFRNVVDGQPFTNWYDNGSNQVAFGRGNRGFIVFNNDDWSFSLTLQTGLPAGTYCDVISGDKINGNCTGIKIYVSDDGKAHFSISNSAEDPFIAIHAESKL
percentage of EdU-negative (hTERT-HMEC; [3]): 5.1 ± 0.51%
percentage of EdU-negative (hTERT-HMEC; [4]): 11.4 ± 1.2%
percentage of EdU-negative (MCF7; [3]): 25.6 ± 0.39%
percentage of EdU-negative (MCF7; [4]): 26.4 ± 0.48%

MVGKMWPVLWTLCAVRVTVDAISVETPQDVLRASQGKSVTLPCTYHTSTSSREGLIQWDKLLLTHTERVVIWPFSNKNYIHGELYKNRVSISNNAEQSDASITIDQLTMADNGTYECSVSLMSDLEGNTKSRVRLLVLVPPSKPECGIEGETIIGNNIQLTCQSKEGSPTPQYSWKRYNILNQEQPLAQPASGQPVSLKNISTDTSGYYICTSSNEEGTQFCNITVAVRSPSMNVALYVGIAVGVVAALIIIGIIIYCCCCRGKDDNTEDKEDARPNREAYEEPPEQLRELSREREEEDDYRQEEQRSTGRESPDHLDQ
percentage of EdU-negative (hTERT-HMEC; [5]): 4.72 ± 0.17%
percentage of EdU-negative (hTERT-HMEC; protein concentration 0.225 µM): 5.86 ± 0.41%
percentage of EdU-negative (MCF7; [5]): 26.33 ± 0.14%
percentage of EdU-negative (MCF7; protein concentration 0.225 µM): 28.18 ± 0.27%

MKLSGMFLLLSLALFCFLTGVFSQGGQVDCGEFQDPKVYCTRESNPHCGSDGQTYGNKCAFCKAIVKSGGKISLKHPGKC [Q6UWN8]
percentage of EdU-negative (hTERT-HMEC; [6]): 4.92 ± 0.69%
percentage of EdU-negative (hTERT-HMEC; [7]): 5.15 ± 0.39%
percentage of EdU-negative (MCF7; [6]): 24.2 ± 1.2%
percentage of EdU-negative (MCF7; [7]): 27.2 ± 3%

MSGPGTAAVALLPAVLLALLAPWAGRGGAAAPTAPNGTLEAELERRWESLVALSLARLPVAAQPKEAAVQSGAGDYLLGIKRLRRLYCNVGIGFHLQALPDGRIGGAHADTRDSLLELSPVERGVVSIFGVASRFFVAMSSKGKLYGSPFFTDECTFKEILLPNNYNAYESYKYPGMFIALSKNGKTKKGNRVSPTMKVTHFLPRL
percentage of EdU-negative (hTERT-HMEC; [8]): 5.05 ± 0.36%
percentage of EdU-negative (hTERT-HMEC; [9]): 5.7993 ± 0.0024%
percentage of EdU-negative (MCF7; [8]): 27.2 ± 2.4%
percentage of EdU-negative (MCF7; [9]): 28.58 ± 0.13%

MLLLINVILTLWVSCANGQVKPCDFPDIKHGGLFHENMRRPYFPVAVGKYYSYYCDEHFETPSGSYWDYIHCTQNGWSPAVPCLRKCYFPYLENGYNQNYGRKFVQGNSTEVACHPGYGLPKAQTTVTCTEKGWSPTPRCIRVRTCSKSDIEIENGFISESSSIYILNKEIQYKCKPGYATADGNSSGSITCLQNGWSAQPICINSSEKCGPPPPISNGDTTSFLLKVYVPQSRVEYQCQPYYELQGSNYVTCSNGEWSEPPRCIHPCIITEENMNKNNIKLKGRSDRKYYAKTGDTIEFMCKLGYNANTSILSFQAVCREGIVEYPRCE
percentage of EdU-negative (hTERT-HMEC; [5]): 5.2 ± 0.45%
percentage of EdU-negative (hTERT-HMEC; protein concentration 0.225 µM): 5.74 ± 0.65%
percentage of EdU-negative (MCF7; [5]): 28 ± 0.75%
percentage of EdU-negative (MCF7; protein concentration 0.225 µM): 29.4 ± 0.63%

MAFLGLFSLLVLQSMATGATFPEEAIADLSVNMYNRLRATGEDENILFSPLSIALAMGMMELGAQGSTQKEIRHSMGYDSLKNGEEFSFLKEFSNMVTAKESQYVMKIANSLFVQNGFHVNEEFLQMMKKYFNAAVNHVDFSQNVAVANYINKWVENNTNNLVKDLVSPRDFDAATYLALINAVYFKGNWKSQFRPENTRTFSFTKDDESEVQIPMMYQQGEFYYGEFSDGSNEAGGIYQVLEIPYEGDEISMMLVLSRQEVPLATLEPLVKAQLVEEWANSVKKQKVEVYLPRFTVEQEIDLKDVLKALGITEIFIKDANLTGLSDNKEIFLSKAIHKSFLEVNEEGSEAAAVSGMIAISRMAVLYPQVIVDHPFFFLIRNRRTGTILFMGRVMHPETMNTSGHDFEEL
percentage of EdU-negative (hTERT-HMEC; [10]): 4.97 ± 0.78%
percentage of EdU-negative (hTERT-HMEC; [11]): 49.1 ± 2.1%
percentage of EdU-negative (MCF7; [10]): 22.8 ± 1.4%
percentage of EdU-negative (MCF7; [11]): 27.7 ± 2.1%
